Experimental data: publication PMC7566471, “A new perspective on the interaction between the Vg/VGLL1-3 proteins and the TEAD transcription factors” (Scientific Reports, 2020)
Residue numbers refer to the chain shown, from its start. Like-named read-outs stand apart in the source and are kept apart here.

How the values were obtained:
[1] = target: TEAD4 (protein of the SPR and TR-FRET assays) (human); assay: SPR; peptides against TEAD4; Kd at equilibrium; peptide stocks in DMSO or in acetonitrile:(water + 1 mM TCEP)
[2] = target: wt^Sd (Scalloped 223–440), N-biotinylated-Avitagged (Drosophila melanogaster) (UniProt P30052); assay: SPR; N-biotinylated-Avitagged Sd (wild type or mutant) immobilised on sensor chips; Yki or Vg fragment as analyte; Kd at equilibrium by a standard SPR method
[3] = target: TEAD4 (protein of the SPR and TR-FRET assays) (human); assay: FRET or BRET; TR-FRET assay with TEAD4; potency (IC50) of peptides; methodology in Fig. S8
TEAD4 (Homo sapiens) = TEAD4 (Homo sapiens) (UniProt Q15561); details: cited from earlier work
[4] = target: N-terminally V5-tagged Asp272Ala^TEAD4 (full length) (human) (UniProt Q15561); assay: co-IP; V5-TEAD4 and (FLAG)3-VGLL2 co-transfected into HEK293FT YAP/TAZ double knockout cells; V5 immunoprecipitation, anti-FLAG Western blot; similar results in wild-type HEK293FT cells
[5] = target: TEAD4 (protein of the SPR and TR-FRET assays) (human); assay: SPR; peptides against TEAD4; Kd at equilibrium; peptide stocks in DMSO or in acetonitrile:(water + 1 mM TCEP); remark: listed apart in the source
[6] = target: T1, wt^Sd (Scalloped 223–440), N-biotinylated-Avitagged (Drosophila melanogaster, UniProt P30052 223-440, biotin on the Avi-tag; acylated (incubated with myristoyl coenzyme A; purified as a mixture of acylated and non-acylated proteins)); assay: SPR; N-biotinylated-Avitagged Sd (wild type or mutant) immobilised on sensor chips; Kd by kinetic titration (Kd^KT); details: both partners purified
T1 construct: Immobilised on SPR sensor chips by the biotinylated Avi-tag; also called Sd^223–440; source: E. coli BL21(DE3) with a BirA plasmid, purified (HisTrap, HRV 3C cleavage, Superdex 75); not shown: His6, N-terminal, cleaved; Avi-tag, N-terminal, kept
T1 sequence (looked up): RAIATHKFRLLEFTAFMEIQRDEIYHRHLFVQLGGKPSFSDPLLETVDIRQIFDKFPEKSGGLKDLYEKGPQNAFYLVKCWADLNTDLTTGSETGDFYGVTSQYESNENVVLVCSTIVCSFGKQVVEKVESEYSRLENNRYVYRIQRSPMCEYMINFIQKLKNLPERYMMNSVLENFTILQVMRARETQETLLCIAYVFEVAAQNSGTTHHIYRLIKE

[7] = target: T1, wt^Sd (Scalloped 223–440), …; assay: SPR; N-biotinylated-Avitagged Sd (wild type or mutant) immobilised on sensor chips; Yki or Vg fragment as analyte; Kd at equilibrium by a standard SPR method; details: both partners purified
[8] = target: T2, Asp276Ala^Sd (Scalloped 223–440), biotinylated Avi-tagged (Drosophila melanogaster, UniProt P30052 223-440, Asp276Ala, biotin on the Avi-tag; incubated with myristoyl coenzyme A); assay: SPR; N-biotinylated-Avitagged Sd (wild type or mutant) immobilised on sensor chips; Kd by kinetic titration (Kd^KT); details: both partners purified
T2 construct: Scalloped (Sd), Drosophila melanogaster, UniProt P30052, amino acids 223–440, with Asp276Ala; also called Asp246Ala^Sd (as printed in two sentences); source: E. coli BL21(DE3) with a BirA plasmid, purified (HisTrap, HRV 3C cleavage, Superdex 75); not shown: His6, N-terminal, cleaved; Avi-tag, N-terminal, kept
T2 sequence (looked up): T1 sequence (looked up) with D54A

[9] = target: T3, Tyr435His^Sd (Scalloped 223–440), biotinylated Avi-tagged (Drosophila melanogaster, UniProt P30052 223-440, Tyr435His, biotin on the Avi-tag; incubated with myristoyl coenzyme A); assay: as above; details: both partners purified
T3 construct: Scalloped (Sd), Drosophila melanogaster, UniProt P30052, amino acids 223–440, with Tyr435His; source: E. coli BL21(DE3) with a BirA plasmid, purified (HisTrap, HRV 3C cleavage, Superdex 75); not shown: His6, N-terminal, cleaved; Avi-tag, N-terminal, kept
T3 sequence (looked up): T1 sequence (looked up) with Y213H

[10] = target: T2, Asp276Ala^Sd (Scalloped 223–440), …; assay: SPR; N-biotinylated-Avitagged Sd (wild type or mutant) immobilised on sensor chips; Yki or Vg fragment as analyte; Kd at equilibrium by a standard SPR method; details: both partners purified
[11] = target: T3, Tyr435His^Sd (Scalloped 223–440), …; assay: as above; details: both partners purified

Sequence of N-terminally V5-tagged Asp272Ala^TEAD4 (full length) (human) (Q15561 whole entry D272A): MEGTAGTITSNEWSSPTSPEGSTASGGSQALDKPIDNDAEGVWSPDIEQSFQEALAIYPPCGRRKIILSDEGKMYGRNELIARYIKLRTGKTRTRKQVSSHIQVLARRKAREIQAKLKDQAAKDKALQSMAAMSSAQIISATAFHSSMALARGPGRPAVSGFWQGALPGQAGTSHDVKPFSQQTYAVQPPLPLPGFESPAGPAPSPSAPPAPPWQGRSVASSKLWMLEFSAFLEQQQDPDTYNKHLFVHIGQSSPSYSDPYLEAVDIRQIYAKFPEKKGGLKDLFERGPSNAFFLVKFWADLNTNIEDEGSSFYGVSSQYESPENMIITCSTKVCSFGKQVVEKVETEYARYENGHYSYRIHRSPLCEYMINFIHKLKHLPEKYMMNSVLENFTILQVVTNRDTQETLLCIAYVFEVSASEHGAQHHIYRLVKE
Sequence of TEAD4 (Homo sapiens) (Q15561 whole entry): as the sequence (Q15561 whole entry D272A) above, with A272D counted along it

## Flyman (hybrid peptide: β-strand:α-helix and Ω-loop of VGLL2 connected by the linker from Vg)
[1]
  Kd: 4.3 nM

## Vg^298–337 (from UniProt Q26366 298-337) (peptide)
[2]
  Kd: 61 nM

## YAP^85–99 (from UniProt P46937 85-99) (peptide)
[3]
  IC50: 98000 nM
[1]
  Kd: 58000 nM

## VGLL1 27-51 (from UniProt Q99990)
TEAD4 (Homo sapiens)
  Kd: 160 nM

## (FLAG)3-delΩ^VGLL2 (full length with the Ω-loop deleted) (from UniProt Q8N8G2-1 1-317) (natural protein)
[4]
  fold reduction of co-immunoprecipitation against wt^TEAD4 with wt^VGLL2: 2 fold

## Ac-PMSNRNFPPSFWNSN-NH2 [Vg^323–337]
[3]
  IC50: 160000 nM

## Ac-PMSQRSFPASFWNSA-NH2 [VGLL2^135–149]
[3]
  IC50: 133000 nM

## Ac-CVLFTYFQGDISSVVDEHFSRALS-NH2 [VGLL2^85–108]
[3]
  IC50: 340 nM
[1]
  Kd: 590 nM

B1: VGLL2^85–149 (peptide)
peptide: Ac-CVLFTYFQGDISSVVDEHFSRALSQPSSYSPSCTSSKAPRSSGPWRDCSFPMSQRSFPASFWNSA-NH2
[3]
  IC50: 6.3 nM
[1]
  Kd: 34 nM

B2: Vg^288–337 (peptide, UniProt Q26366 288-337, looked up)
peptide: Ac-CVVFTNYSGDTASQVDEHFSRALNYNNKDSKESSSPMSNRNFPPSFWNSN-NH2
notes: source: synthetic peptide, bought: Biosynthan
[1]
  Kd: 3.1 nM
[5]
  Kd: 4.1 nM
[6]
  Kd: 1.6 nM
[7]
  Kd: < 2 nM

B3: Yki^31–79 (peptide, UniProt Q45VV3 31-79, looked up)
peptide: Ac-NNLVVRVNQDTDDNLQALFDSVLNPGDAKRPLQLPLRMRKLPNSFFTPP-NH2
notes: Yorkie (Yki), Drosophila melanogaster, UniProt Q45VV3, residues 31–79; only Yki 30–146 and Vg 263–382 are described as recombinant; source: synthetic peptide, bought: Biosynthan
[7]
  Kd: 23 nM

B4: Vg^263–382 (domain or fragment, Drosophila melanogaster, UniProt Q26366 263-382, looked up)
chain: ETPMGSGGGGLAGSGQGQAQYLSASCVVFTNYSGDTASQVDEHFSRALNYNNKDSKESSSPMSNRNFPPSFWNSNYVHPIPAPTHHQVSDLYGTATDTGYATDPWVPHAAHYGSYAHAAH
notes: Vestigial (Vg), Drosophila melanogaster, UniProt Q26366, amino acids 263–382; also called Vestigial 263–382; source: E. coli (BL21(DE3) and NiCo21(DE3) are both named), purified (HisTrap, HRV 3C cleavage, Superdex 75); not shown: His-tag, N-terminal, cleaved; strep-tagII, N-terminal, cleaved; rubredoxin, N-terminal, cleaved
[6]
  Kd: 0.38 nM
[8]
  Kd: 5.5 nM
[9]
  Kd: 24 nM
[7]
  Kd: < 2 nM

B5: Yki^30–146 (domain or fragment, Drosophila melanogaster, UniProt Q45VV3 30-146, looked up)
chain: SNNLVVRVNQDTDDNLQALFDSVLNPGDAKRPLQLPLRMRKLPNSFFTPPAPSHSRANSADSTYDAGSQSSINIGNKASIVQQPDGQSPIAAIPQLQIQPSPQHSRLAIHHSRARSS
notes: Yorkie (Yki), Drosophila melanogaster, UniProt Q45VV3, amino acids 30–146; also called Yorkie 30–146; source: E. coli (BL21(DE3) and NiCo21(DE3) are both named), purified (HisTrap, HRV 3C cleavage, Superdex 75); not shown: His-tag, N-terminal, cleaved; strep-tagII, N-terminal, cleaved; rubredoxin, N-terminal, cleaved
[6]
  Kd: 13 nM
[7]
  Kd: 13 nM
[10]
  Kd: 5000 nM
[11]
  Kd: 13000 nM

B6: Yki^41–79 (peptide, UniProt Q45VV3 41-79, looked up)
peptide: Ac-TDDNLQALFDSVLNPGDAKRPLQLPLRMRKLPNSFFTPP-NH2
notes: Yorkie (Yki), Drosophila melanogaster, UniProt Q45VV3, residues 41–79 (lacks the putative β-strand); source: synthetic peptide, bought: Biosynthan
[7]
  Kd: 69 nM

B7: Vg^288–311 (peptide, UniProt Q26366 288-311, looked up)
peptide: Ac-CVVFTNYSGDTASQVDEHFSRALN-NH2
notes: Vestigial (Vg), Drosophila melanogaster, UniProt Q26366, residues 288–311 (TONDU domain); also called TONDU domain of Vg; β-strand:α-helix region of Vg; source: synthetic peptide, bought: Biosynthan
[7]
  Kd: 291 nM
